Results from paper PMC3093369.
Several values for one entry are separate records, joined by “and”; a condition that tells them apart may be missing. Identical values can stand only once.

Experiments:
[1] = biological target: recombinant Fasciola hepatica helminth defence molecule-1 (FhHDM-1) (Fasciola hepatica); experiment: AUC; sedimentation velocity, 0.1 mg/ml, 20°C, 10 mM sodium citrate, 50 mM NaF, pH 4.5, 40,000 rpm; c(s) and c(M) distributions (SEDFIT)
[2] = biological target: recombinant Fasciola hepatica helminth defence molecule-1 (FhHDM-1) (Fasciola hepatica); experiment: AUC; sedimentation velocity, 0.1 mg/ml, 20°C, 10 mM Tris, 50 mM NaF, pH 7.3, 40,000 rpm; c(s) and c(M) distributions (SEDFIT)

recombinant Fasciola hepatica helminth defence molecule-1 (FhHDM-1) (natural protein)
stoichiometry N [1]: 2 and 5
stoichiometry N [2]: 3
